Numbered stars: 1 amine (or outer) side, 2 acyl side, 3 side chain; on linkers, the order of the positions; unused ones are H or OH. Bridge positions count the residues as written; N and C are the ends. Square brackets hold non-standard residues; d marks the D form. Ends that are not written are not given here. X12 = (S)‑(trifluoromethyl)‑L‑cysteine, O=C([C@H](CSC(F)(F)F)N[*:1])[*:2]; Oic = O=C(O)[C@@H]1C[C@@H]2CCCC[C@@H]2N1; tBuAla = CC(C)(C)C[C@H](N)C(=O)O; 4Pal = N[C@@H](Cc1ccncc1)C(=O)O; Gly(cBu) = N[C@H](C(=O)O)C1CCC1; Pen = CC(C)(S)[C@H](N)C(=O)O; 3Amb = NCc1cccc(C(=O)O)c1; Nva = CCC[C@H](N)C(=O)O; Sar = CNCC(=O)O
T1: Recombinant human MASP1 enzyme (fragment corresponding to amino acids 297-699, C-terminal His Tag) (human, UniProt P48740 297-699)
T1 sequence: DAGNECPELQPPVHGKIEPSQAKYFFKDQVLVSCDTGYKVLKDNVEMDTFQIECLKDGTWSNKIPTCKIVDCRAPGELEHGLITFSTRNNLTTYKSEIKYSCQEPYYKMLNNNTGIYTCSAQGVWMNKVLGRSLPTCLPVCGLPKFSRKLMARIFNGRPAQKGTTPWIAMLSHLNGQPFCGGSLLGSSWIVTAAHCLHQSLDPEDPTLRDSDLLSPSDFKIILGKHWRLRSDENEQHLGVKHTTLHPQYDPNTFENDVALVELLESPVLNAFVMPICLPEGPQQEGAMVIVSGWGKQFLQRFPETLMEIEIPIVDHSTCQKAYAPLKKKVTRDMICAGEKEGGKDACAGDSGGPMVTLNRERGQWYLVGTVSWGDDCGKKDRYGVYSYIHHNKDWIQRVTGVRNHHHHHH

B1: ((N-Me)G)-IC+SRS-((S)-(trifluoromethyl)-L-cysteine)-PPI-(Pen)+IP-NH2 (peptide)
peptide: [Sar]ICSRS[X12]PPI[Pen]IP-NH2
modifications: disulfide 3-11; N-terminus assumed
SMILES: CC[C@H](C)[C@H](NC(=O)CNC)C(=O)N[C@H]1CSSC(C)(C)[C@@H](C(=O)N[C@H](C(=O)N2CCC[C@H]2C(N)=O)[C@@H](C)CC)NC(=O)[C@H]([C@@H](C)CC)NC(=O)[C@@H]2CCCN2C(=O)[C@@H]2CCCN2C(=O)[C@H](CSC(F)(F)F)NC(=O)[C@H](CO)NC(=O)[C@H](CCCNC(=N)N)NC(=O)[C@H](CO)NC1=O
B2: ((N-Me)G)-IC+SRSLP-(Oic)-I-(Pen)+IPE-OH (peptide)
peptide: [Sar]ICSRSLP[Oic]I[Pen]IPE-OH
modifications: disulfide 3-11; N-terminus assumed
SMILES: CC[C@H](C)[C@H](NC(=O)CNC)C(=O)N[C@H]1CSSC(C)(C)[C@@H](C(=O)N[C@H](C(=O)N2CCC[C@H]2C(=O)N[C@@H](CCC(=O)O)C(=O)O)[C@@H](C)CC)NC(=O)[C@H]([C@@H](C)CC)NC(=O)[C@@H]2C[C@@H]3CCCC[C@@H]3N2C(=O)[C@@H]2CCCN2C(=O)[C@H](CC(C)C)NC(=O)[C@H](CO)NC(=O)[C@H](CCCNC(=N)N)NC(=O)[C@H](CO)NC1=O
B3: (Nva)-IC+SRSLPPIC+IPD-NH2 (peptide)
peptide: [Nva]ICSRSLPPICIPD-NH2
modifications: disulfide 3-11; N-terminus assumed
SMILES: CCC[C@H](N)C(=O)N[C@H](C(=O)N[C@H]1CSSC[C@@H](C(=O)N[C@H](C(=O)N2CCC[C@H]2C(=O)N[C@@H](CC(=O)O)C(N)=O)[C@@H](C)CC)NC(=O)[C@H]([C@@H](C)CC)NC(=O)[C@@H]2CCCN2C(=O)[C@@H]2CCCN2C(=O)[C@H](CC(C)C)NC(=O)[C@H](CO)NC(=O)[C@H](CCCNC(=N)N)NC(=O)[C@H](CO)NC1=O)[C@@H](C)CC
B4: (4-Pal)-IC+SRS-((tBu)A)-PPI-(Pen)+IPD-NH2 (peptide)
peptide: [4Pal]ICSRS[tBuAla]PPI[Pen]IPD-NH2
modifications: disulfide 3-11; N-terminus assumed
SMILES: CC[C@H](C)[C@H](NC(=O)[C@@H](N)Cc1ccncc1)C(=O)N[C@H]1CSSC(C)(C)[C@@H](C(=O)N[C@H](C(=O)N2CCC[C@H]2C(=O)N[C@@H](CC(=O)O)C(N)=O)[C@@H](C)CC)NC(=O)[C@H]([C@@H](C)CC)NC(=O)[C@@H]2CCCN2C(=O)[C@@H]2CCCN2C(=O)[C@H](CC(C)(C)C)NC(=O)[C@H](CO)NC(=O)[C@H](CCCNC(=N)N)NC(=O)[C@H](CO)NC1=O
B5: (3-(Aminomethyl)benzoic acid)-IC+SRS-((tBu)A)-PP-(Pen)+IP-NH2 (peptide)
peptide: [3Amb]ICSRS[tBuAla]PP[Pen]IP-NH2
modifications: disulfide 3-10; N-terminus assumed
SMILES: CC[C@H](C)[C@H](NC(=O)c1cccc(CN)c1)C(=O)N[C@H]1CSSC(C)(C)[C@@H](C(=O)N[C@H](C(=O)N2CCC[C@H]2C(N)=O)[C@@H](C)CC)NC(=O)[C@@H]2CCCN2C(=O)[C@@H]2CCCN2C(=O)[C@H](CC(C)(C)C)NC(=O)[C@H](CO)NC(=O)[C@H](CCCNC(=N)N)NC(=O)[C@H](CO)NC1=O
B6: AIC+SRSLPPIC+(Cbg)-PD-NH2 (peptide)
peptide: AICSRSLPPIC[Gly(cBu)]PD-NH2
modifications: disulfide 3-11; N-terminus assumed
SMILES: CC[C@H](C)[C@H](NC(=O)[C@H](C)N)C(=O)N[C@H]1CSSC[C@@H](C(=O)N[C@H](C(=O)N2CCC[C@H]2C(=O)N[C@@H](CC(=O)O)C(N)=O)C2CCC2)NC(=O)[C@H]([C@@H](C)CC)NC(=O)[C@@H]2CCCN2C(=O)[C@@H]2CCCN2C(=O)[C@H](CC(C)C)NC(=O)[C@H](CO)NC(=O)[C@H](CCCNC(=N)N)NC(=O)[C@H](CO)NC1=O

What was measured:
[1] = target: Recombinant human MASP2 enzyme (fragment corresponding to amino acids 297-686, C-terminal His Tag) (human, UniProt O00187 297-686); assay: cell-based or functional assay
Chain of Recombinant human MASP2 enzyme (fragment corresponding to amino acids 297-686, C-terminal His Tag) (O00187 other isoform, or with tags, fused parts or gaps limits assumed): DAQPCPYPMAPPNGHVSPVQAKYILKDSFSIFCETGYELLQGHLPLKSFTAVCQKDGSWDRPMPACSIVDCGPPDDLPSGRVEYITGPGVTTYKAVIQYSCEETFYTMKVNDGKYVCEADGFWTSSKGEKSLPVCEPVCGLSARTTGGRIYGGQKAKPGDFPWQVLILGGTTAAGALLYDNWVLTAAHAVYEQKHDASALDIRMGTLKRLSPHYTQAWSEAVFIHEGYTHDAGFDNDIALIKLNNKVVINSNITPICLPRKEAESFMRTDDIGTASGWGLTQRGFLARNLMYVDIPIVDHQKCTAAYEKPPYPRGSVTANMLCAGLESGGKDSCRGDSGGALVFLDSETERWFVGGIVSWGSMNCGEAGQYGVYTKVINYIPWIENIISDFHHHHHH

[2] = target: T1, Recombinant human MASP1 enzyme …; assay: cell-based or functional assay

Row | Binder | human MASP2 IC50 [1] | human MASP1 IC50 [2]
1 | B1 | 27 nM | 6.1 nM
2 | B2 | 180 nM | 6.2 nM
3 | B3 | 220 nM | 6.3 nM
4 | B4 | 65 nM | 6.4 nM
5 | B5 | 16 nM | 6.4 nM
6 | B6 | 410 nM | 6.5 nM

— patent US20210246166A1 (Bayer, published 2021)
